Experimental data reported in article PMC9561381 (Nucleic Acids Research, 2022).

Molecular target: the molecule itself
Assay: SEC-MALS

B1: DCP2_(C-tail), untagged (domain or fragment, human, UniProt Q8IU60 249-353, looked up)
chain: SDNGFSSTGSTPAKPTVEKLSRTKFRHSQQLFPDGSPGDQWVKHRQPLQQKPYNNHSEMSDLLKGKNQSMRGNGRKQYQDSPNQKKRTNGLQPAKQQNSLMKCEK
binding result: binds
